The values below come from US20210292426A1 (Hoffmann-La Roche, published 2021).

The target in experiment [1] is T1, human fibroblast activation protein (huFAP) expressed on cells (human, UniProt Q12884 1-760).
T1 construct: UniProt Q12884 printed; also called human FAP; hFAP
As to the kind of experiment: flow cytometry competition on huFAP-transfected HEK cells; unlabelled antibody titrated 0.2-60 µg/ml, then AF647-labelled 4B9 (20 µg/ml) as competitor. On the technique in general: Flow cytometry measures light scatter and fluorescence of single cells or particles in a stream.
Description: Briefly, the target cells were harvested with Cell Dissociation buffer, washed with FACS Buffer (PBS+2% FCS+5 mM EDTA+0.25% sodium acide) and seeded into 96-U bottom plates (1×10^5 cells/well).

In experiment [2] the target is T2, biotinylated recombinant human FAP (human, UniProt Q12884 27-760, biotinylated (site not stated)).
T2 construct: also called biotinylated human FAP; recombinant huFAP
In words: SPR (Biacore), Fab. In general terms: SPR reads the build-up and loss of mass on a sensor chip optically.

Experiment [3] deals with T2, biotinylated recombinant human FAP. In words: SPR (Biacore), biotinylated huFAP immobilized, Fab analyte.
Description: As running and dilution buffer, HBS-P+ (10 mM HEPES, 150 mM NaCl pH 7.4, 0.05% Surfactant P20) was used. A dilution series of anti-huFAP Fabs (3.7-300 nM, 1:3 dilution) was successively injected for 120s each, dissociation was monitored for 1800s at a flow rate of 30 μl/min (single cycle kinetics). The surface was regenerated by injecting 6 M guanidine-HCl, 0.25 M NaOH for 120 s. […] Curve fitting was performed using the 1:1 Langmuir binding model within the Biacore evaluation software.
The target in experiment [4] is T1, human fibroblast activation protein …. As to the kind of experiment: flow cytometry, NIH/3T3-huFAP cells.
Description: (§1) Plates were centrifuged 5 minutes at 1700 rpm and supernatants were flicked off. […] Afterwards the cells were washed three times with 200 μL 4° C. cold FACS buffer. […] Data analysis was performed using the FlowJo version 10 software (FlowJo LLC).
Experiment [5] concerns the target T3, human CD40 expressed on cells (human, UniProt P25942 21-277).
T3 construct: Endogenous CD40 on Raji, Daudi and primary human B cells; human CD40 on DCs of huCD40tg mice; also called huCD40; Raji cells
In words: flow cytometry, primary human B cells.
Description: as §1

Substitutions are numbered along the chain they refer to. Numbers in names are those of the source.

B1: anti-FAP antibody 28H1 (antibody, V domains shown)
VH: EVQLLESGGGLVQPGGSLRLSCAASGFTFSSHAMSWVRQAPGKGLEWVSAIWASGEQYYADSVKGRFTISRDNSKNTLYLQMNSLRAEDTAVYYCAKGWLGNFDYWGQGTLVTVSS
VL: EIVLTQSPGTLSLSPGERATLSCRASQSVSRSYLAWYQQKPGQAPRLLIIGASTRATGIPDRFSGSGSGTDFTLTISRLEPEDFAVYYCQQGQVIPPTFGQGTKVEIK
notes: also called FAP clone 28H1; FAP (28H1)
Consider B1, for which the binding result in experiment [1] is on record as “binds”.

B2: 4B9_Fab (Fab, V domains shown)
VH: EVQLLESGGGLVQPGGSLRLSCAASGFTFSSYAMSWVRQAPGKGLEWVSAIIGSGASTYYADSVKGRFTISRDNSKNTLYLQMNSLRAEDTAVYYCAKGWFGGFNYWGQGTLVTVSS
VL: B1 VL with S30T, R31S, I50N, G51V, A52G, T54R, Q93I, V94M, I95L
notes: Fab
As for B2, in experiment [2], the Kd turned out to be 0.279 nM, the “T ½” value is 0.917 h, the koff stood at 0.000208 s⁻¹ and the kon worked out at 747000 M⁻¹ s⁻¹. In experiment [3], the Kd amounted to 0.43 nM, the koff amounted to 0.00078 s⁻¹ and the kon turned out to be 1.82e+06 M⁻¹ s⁻¹.

B3: P1AE2487, CD40 (P1AE0817) x FAP (4B9) (2+1) C-terminal crossfab fusion (bispecific antibody)
chain 1: EIVLTQSPGTLSLSPGERATLSCRASQSVTSSYLAWYQQKPGQAPRLLINVGSRRATGIPDRFSGSGSGTDFTLTISRLEPEDFAVYYCQQGIMLPPTFGQGTKVEIKSSASTKGPSVFPLAPSSKSTSGGTAALGCLVKDYFPEPVTVSWNSGALTSGVHTFPAVLQSSGLYSLSSVVTVPSSSLGTQTYICNVNHKPSNTKVDKKVEPKSC
chain 2: DIVMTQTPLSLSVTPGQPASISCRSSQSLVHSNGNTFLHWYLQKPGQSPQLLIYTVSNRFSGVPDRFSGSGSGTDFTLKISRVEAEDVGVYFCSQTTHVPWTFGGGTKVEIKRTVAAPSVFIFPPSDEQLKSGTASVVCLLNNFYPREAKVQWKVDNALQSGNSQESVTEQDSKDSTYSLSSTLTLSKADYEKHKVYACEVTHQGLSSPVTKSFNRGEC
chain 3: not shown
chain 4: QVQLVQSGAEVKKPGASVKVSCKASGYSFTGYYIHWVRQAPGQSLEWMGRVIPNAGGTSYNQKFKGRVTLTVDKSISTAYMELSRLRSDDTAVYYCAREGIYWWGQGTTVTVSSASTKGPSVFPLAPSSKSTSGGTAALGCLVKDYFPEPVTVSWNSGALTSGVHTFPAVLQSSGLYSLSSVVTVPSSSLGTQTYICNVNHKPSNTKVDKKVEPKSCDKTHTCPPCPAPEAAGGPSVFLFPPKPKDTLMISRTPEVTCVVVDVSHEDPEVKFNWYVDGVEVHNAKTKPREEQYNSTYRVVSVLTVLHQDWLNGKEYKCKVSNKALGAPIEKTISKAKGQPREPQVCTLPPSRDELTKNQVSLSCAVKGFYPSDIAVEWESNGQPENNYKTTPPVLDSDGSFFLVSKLTVDKSRWQQGNVFSCSVMHEALHNHYTQKSLSLSPG
B3 yielded an EC50 in experiment [4] of 3.7 nM.

B4: P1AE3378, CD40 (P1AE0817) x FAP (4B9) (3+1) with C-terminal crossfab fusion (bispecific antibody)
chain 1: B3 chain 1
chain 2: B3 chain 2
chain 3: not shown
chain 4: QVQLVQSGAEVKKPGASVKVSCKASGYSFTGYYIHWVRQAPGQSLEWMGRVIPNAGGTSYNQKFKGRVTLTVDKSISTAYMELSRLRSDDTAVYYCAREGIYWWGQGTTVTVSSASTKGPSVFPLAPSSKSTSGGTAALGCLVKDYFPEPVTVSWNSGALTSGVHTFPAVLQSSGLYSLSSVVTVPSSSLGTQTYICNVNHKPSNTKVDKKVEPKSCDGGGGSGGGGSQVQLVQSGAEVKKPGASVKVSCKASGYSFTGYYIHWVRQAPGQSLEWMGRVIPNAGGTSYNQKFKGRVTLTVDKSISTAYMELSRLRSDDTAVYYCAREGIYWWGQGTTVTVSSASTKGPSVFPLAPSSKSTSGGTAALGCLVKDYFPEPVTVSWNSGALTSGVHTFPAVLQSSGLYSLSSVVTVPSSSLGTQTYICNVNHKPSNTKVDKKVEPKSCDKTHTCPPCPAPEAAGGPSVFLFPPKPKDTLMISRTPEVTCVVVDVSHEDPEVKFNWYVDGVEVHNAKTKPREEQYNSTYRVVSVLTVLHQDWLNGKEYKCKVSNKALGAPIEKTISKAKGQPREPQVCTLPPSRDELTKNQVSLSCAVKGFYPSDIAVEWESNGQPENNYKTTPPVLDSDGSFFLVSKLTVDKSRWQQGNVFSCSVMHEALHNHYTQKSLSLSPG
Regarding B4, the 50% effective concentration (EC50) in experiment [5] was 0.085 nM; in experiment [4] it was 5.53 nM.

B5: P1AE3377, CD40 (P1AE0817) x FAP (P1AE1689) (3+1) C-terminal crossfab fusion (bispecific antibody, human IgG1, kappa, L234A L235A)
light 1: QVQLVQSGAEVKKPGASVKVSCKASGYTLTDYNMDWVRQAPGQGLEWIGDIYPNTGGTIYNQKFKGRVTMTIDTSTSTVYMELSSLRSEDTAVYYCTRFRGIHYAMDYWGQGTTVTVSSASVAAPSVFIFPPSDEQLKSGTASVVCLLNNFYPREAKVQWKVDNALQSGNSQESVTEQDSKDSTYSLSSTLTLSKADYEKHKVYACEVTHQGLSSPVTKSFNRGEC
light 2: B3 chain 2 with E128R, Q129K
heavy 1: not shown
heavy 2: B4 chain 4 with K144E, K210E, K372E, K438E
notes: Trivalent for CD40, monovalent for FAP; knob-into-hole, P329G LALA Fc; also called CD40 x FAP (212) 3+1 crossfab
On to B5, for which the EC50 in experiment [5] came to 0.038 nM; in experiment [4], 4.94 nM.

B6: P1AE1690_Fab (humanized clone 212, VH1G2a/VL1G1a) (Fab, V domains shown)
VH: QVQLVQSGAEVKKPGASVKVSCKASGYTLTDYNMDWVRQAPGKSLEWIGDIYPNTGGTIYNQKFKGRVTMTIDKSTSTVYMELSSLRSEDTAVYYCTRFRGIHYAMDYWGQGTTVTVSS
VL: EIVLTQSPATLSLSPGERATLSCRASESVDNYGLSFINWFQQKPGQAPRLLIYGTSNRGSGIPARFSGSGSGTDFTLTISSLEPEDFAVYFCQQSNEVPYTFGGGTKVEIK
notes: Fab
On to B6, for which the “T ½” value in experiment [2] was found to be 3.05 h.

B7: P1AE1693_Fab (humanized clone 212, VH1G2a/VL1G2a) (Fab, V domains shown)
VH: B6 VH
VL: B6 VL with A47P
notes: Fab
For the molecule B7, the “T ½” value in experiment [2] was 2.68 h.

B8: P1AE1689_Fab (humanized clone 212, VH1G1a/VL1G1a) (Fab, V domains shown)
VH: B6 VH with K43Q, S44G, K74T
VL: B6 VL
notes: Fab
B8: the “T ½” value in experiment [2] came out at 4.57 h.

B9: P1AE1702_Fab (humanized clone 212, VH2G2a/VL2G2a) (Fab, V domains shown)
VH: EVQLLESGGGLVQPGGSLRLSCAASGYTLTDYNMDWVRQAPGKGLEWVGDIYPNTGGTIYNQKFKGRFTISIDKSKNTAYLQMNSLRAEDTAVYYCTRFRGIHYAMDYWGQGTTVTVSS
VL: DIQMTQSPSSLSASVGDRVTITCRASESVDNYGLSFINWFQQKPGQPPKLLIYGTSNRGSGVPSRFSGSGSGTDFTLTISSLQPEDFAMYFCQQSNEVPYTFGGGTKVEIK
notes: Fab
With B9, in experiment [2], the “T ½” value was 1.8 h.

As a reminder, the Kd is a measure of binding affinity in units of concentration. As usually defined, the koff is the first-order rate constant of dissociation. A word on the kon: it is a measure of how fast the partners come together. As usually defined, the EC50 is the concentration giving half of the maximal effect. Low values mean greater potency, high ones weaker potency.
